Molecular target: T1, complement C1q (human, UniProt P02745;P02746;P02747)
T1 construct: also called human complement C1q; source: bought: Merk (Darmstadt, Germany); copies: 6 + 6 + 6
Assay: MST; fluorescently labelled C1q (RED-NHS) 40 nM; TsCRT, TsCRT^Δ, mutants or P^TsCRT gradient-diluted; 50 mM Hepes, 150 mM NaCl, 2 mM CaCl2, 0.05% Tween 20, pH 7.4; Monolith NT.115, LED power 20%, MST power 50%
Details: both partners purified

T1 sequence (P02745 23-245, chain 1 of 3): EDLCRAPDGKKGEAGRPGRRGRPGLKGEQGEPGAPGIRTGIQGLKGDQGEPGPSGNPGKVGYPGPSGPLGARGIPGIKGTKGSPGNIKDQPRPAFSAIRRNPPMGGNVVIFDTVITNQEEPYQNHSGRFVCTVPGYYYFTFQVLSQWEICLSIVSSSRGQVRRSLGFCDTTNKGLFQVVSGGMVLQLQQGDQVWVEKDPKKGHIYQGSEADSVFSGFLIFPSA
T1 sequence (P02746 28-253, chain 2 of 3): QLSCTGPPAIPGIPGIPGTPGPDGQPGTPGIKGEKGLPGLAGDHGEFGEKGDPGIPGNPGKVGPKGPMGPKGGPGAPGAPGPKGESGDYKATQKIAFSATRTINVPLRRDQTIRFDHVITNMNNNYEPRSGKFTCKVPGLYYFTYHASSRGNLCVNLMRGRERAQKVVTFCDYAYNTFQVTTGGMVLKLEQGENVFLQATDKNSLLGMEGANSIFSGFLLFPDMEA
T1 sequence (P02747 29-245, chain 3 of 3): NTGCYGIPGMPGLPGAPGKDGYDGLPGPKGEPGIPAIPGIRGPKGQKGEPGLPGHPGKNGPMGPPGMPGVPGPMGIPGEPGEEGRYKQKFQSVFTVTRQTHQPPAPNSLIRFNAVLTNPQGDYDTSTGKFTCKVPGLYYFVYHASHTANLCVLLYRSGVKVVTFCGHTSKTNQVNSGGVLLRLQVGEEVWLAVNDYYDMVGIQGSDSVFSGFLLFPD

B1: C1q-binding peptide P^TsCRT (TsCRT residues 122-146) (peptide)
peptide: DLEDFNSDTPYRIMFGPDICGPEKR
notes: calreticulin of Trichinella spiralis (TsCRT), residues 122-146; source: synthetic peptide
**Q.** How did the Kd turn out when B1 was run?
**A.** 260 nM
